Measured values reported in US20150313972A1.
Several values for one entry are separate records, joined by “and”; a condition that tells them apart may be missing. Equal entries are not always repeated.

Target: M6P receptors on the surface of human fibroblasts (human), P11717
Assay: cell-based or functional assay

Chain of M6P receptors on the surface of human fibroblasts (human), P11717 (P11717 41-2491): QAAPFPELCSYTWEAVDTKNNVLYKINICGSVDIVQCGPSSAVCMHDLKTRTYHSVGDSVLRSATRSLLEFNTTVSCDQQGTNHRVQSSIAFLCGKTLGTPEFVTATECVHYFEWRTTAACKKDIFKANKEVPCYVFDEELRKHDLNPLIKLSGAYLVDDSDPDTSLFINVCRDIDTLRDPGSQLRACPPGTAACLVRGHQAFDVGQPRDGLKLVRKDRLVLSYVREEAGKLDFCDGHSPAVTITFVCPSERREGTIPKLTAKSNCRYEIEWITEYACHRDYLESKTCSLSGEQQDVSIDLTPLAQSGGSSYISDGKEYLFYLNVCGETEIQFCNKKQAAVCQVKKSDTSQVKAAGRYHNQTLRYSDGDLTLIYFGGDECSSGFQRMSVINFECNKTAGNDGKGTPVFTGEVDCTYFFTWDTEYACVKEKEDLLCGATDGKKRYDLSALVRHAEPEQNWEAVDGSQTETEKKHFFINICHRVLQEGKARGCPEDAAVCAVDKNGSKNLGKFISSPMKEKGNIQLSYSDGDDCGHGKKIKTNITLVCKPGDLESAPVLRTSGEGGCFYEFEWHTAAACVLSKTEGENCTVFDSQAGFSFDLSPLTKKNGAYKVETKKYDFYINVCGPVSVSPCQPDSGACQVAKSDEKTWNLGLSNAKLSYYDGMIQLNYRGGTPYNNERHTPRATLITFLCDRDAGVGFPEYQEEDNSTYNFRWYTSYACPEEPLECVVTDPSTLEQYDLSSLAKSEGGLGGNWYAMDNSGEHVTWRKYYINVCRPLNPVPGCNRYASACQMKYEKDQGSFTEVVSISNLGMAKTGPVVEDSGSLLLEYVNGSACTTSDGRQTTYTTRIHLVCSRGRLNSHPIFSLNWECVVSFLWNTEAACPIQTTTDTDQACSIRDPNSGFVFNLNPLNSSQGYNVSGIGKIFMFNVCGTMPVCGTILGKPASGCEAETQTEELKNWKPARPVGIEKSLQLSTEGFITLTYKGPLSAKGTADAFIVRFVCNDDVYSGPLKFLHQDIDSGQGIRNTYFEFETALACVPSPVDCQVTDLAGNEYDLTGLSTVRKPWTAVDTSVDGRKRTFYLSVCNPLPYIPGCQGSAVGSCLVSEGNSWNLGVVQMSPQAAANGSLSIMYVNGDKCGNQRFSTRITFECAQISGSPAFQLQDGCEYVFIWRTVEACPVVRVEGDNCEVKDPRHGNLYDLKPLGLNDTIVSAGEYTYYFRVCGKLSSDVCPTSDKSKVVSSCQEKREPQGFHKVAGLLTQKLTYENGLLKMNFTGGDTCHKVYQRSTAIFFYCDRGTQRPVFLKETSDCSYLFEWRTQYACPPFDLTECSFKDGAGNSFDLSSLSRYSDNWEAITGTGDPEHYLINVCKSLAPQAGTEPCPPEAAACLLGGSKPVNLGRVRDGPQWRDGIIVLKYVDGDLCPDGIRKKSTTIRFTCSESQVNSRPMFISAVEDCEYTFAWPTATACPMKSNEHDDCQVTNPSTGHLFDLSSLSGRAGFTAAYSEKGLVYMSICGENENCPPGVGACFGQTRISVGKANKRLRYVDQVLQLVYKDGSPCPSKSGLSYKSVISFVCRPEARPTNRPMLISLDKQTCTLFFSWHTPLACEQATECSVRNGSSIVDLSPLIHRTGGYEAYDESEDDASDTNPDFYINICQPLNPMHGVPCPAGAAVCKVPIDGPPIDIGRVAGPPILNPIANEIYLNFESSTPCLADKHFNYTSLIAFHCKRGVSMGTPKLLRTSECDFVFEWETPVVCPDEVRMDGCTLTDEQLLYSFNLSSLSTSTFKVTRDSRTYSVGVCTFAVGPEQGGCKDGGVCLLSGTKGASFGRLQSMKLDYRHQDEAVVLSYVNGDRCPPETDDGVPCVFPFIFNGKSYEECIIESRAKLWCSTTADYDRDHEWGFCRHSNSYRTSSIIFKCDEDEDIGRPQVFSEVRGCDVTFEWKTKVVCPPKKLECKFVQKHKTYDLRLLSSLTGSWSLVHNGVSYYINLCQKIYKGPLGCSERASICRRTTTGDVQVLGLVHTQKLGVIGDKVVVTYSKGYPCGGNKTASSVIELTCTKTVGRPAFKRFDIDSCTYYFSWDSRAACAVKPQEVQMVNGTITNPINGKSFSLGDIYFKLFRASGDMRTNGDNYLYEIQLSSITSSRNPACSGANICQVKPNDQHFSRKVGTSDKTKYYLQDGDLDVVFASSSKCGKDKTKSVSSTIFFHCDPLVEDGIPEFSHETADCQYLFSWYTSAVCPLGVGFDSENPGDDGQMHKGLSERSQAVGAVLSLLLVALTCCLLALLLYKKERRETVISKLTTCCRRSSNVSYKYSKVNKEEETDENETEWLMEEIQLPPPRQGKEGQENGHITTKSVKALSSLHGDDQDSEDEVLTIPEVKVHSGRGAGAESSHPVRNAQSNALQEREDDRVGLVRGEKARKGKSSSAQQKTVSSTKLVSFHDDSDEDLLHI

- Cell Uptake: 98
- Cellular Uptake (Bioassay): 85% and 95% and 97%
- Internalization: 83%
B1: purified recombinant human iduronate-2-sulfatase (I2S) produced in serum-free medium, P22304 26-550 (enzyme)
chain: SETQANSTTDALNVLLIIVDDLRPSLGCYGDKLVRSPNIDQLASHSLLFQNAFAQQAVCAPSRVSFLTGRRPDTTRLYDFNSYWRVHAGNFSTIPQYFKENGYVTMSVGKVFHPGISSNHTDDSPYSWSFPPYHPSSEKYENTKTCRGPDGELHANLLCPVDVLDVPEGTLPDKQSTEQAIQLLEKMKTSASPFFLAVGYHKPHIPFRYPKEFQKLYPLENITLAPDPEVPDGLPPVAYNPWMDIRQREDVQALNISVPYGPIPVDFQRKIRQSYFASVSYLDTQVGRLLSALDDLQLANSTIIAFTSDHGWALGEHGEWAKYSNFDVATHVPLIFYVPGRTASLPEAGEKLFPYLDPFDSASQLMEPGRQSMDLVELVSLFPTLAGLAGLQVPPRCPVPSFHVELCREGKNLLKHFRFRDLEEDPYLPGNPRELIAYSQYPRPSDIPQWNSDKPSLKDIKIMGYSIRTIDYRYTVWVGFNPDEFLANFSDIHAGELYFVDSDPLQDHNMYNDSQGGDLFQLLMP
modifications: here or on the partner: cysteine corresponding to Cys59 of mature human I2S (SEQ ID NO:1) converted to C-alpha-formylglycine (87-95% in Table 4, 94% in Table 13); glycans bearing sialic acid and mannose-6-phosphate
